T1: Cas12f RARR (uncultured archaeon, UniProt A0A482D308 SEQ:1-529, I118R,Y122A,I126R,M178R)
T1 sequence: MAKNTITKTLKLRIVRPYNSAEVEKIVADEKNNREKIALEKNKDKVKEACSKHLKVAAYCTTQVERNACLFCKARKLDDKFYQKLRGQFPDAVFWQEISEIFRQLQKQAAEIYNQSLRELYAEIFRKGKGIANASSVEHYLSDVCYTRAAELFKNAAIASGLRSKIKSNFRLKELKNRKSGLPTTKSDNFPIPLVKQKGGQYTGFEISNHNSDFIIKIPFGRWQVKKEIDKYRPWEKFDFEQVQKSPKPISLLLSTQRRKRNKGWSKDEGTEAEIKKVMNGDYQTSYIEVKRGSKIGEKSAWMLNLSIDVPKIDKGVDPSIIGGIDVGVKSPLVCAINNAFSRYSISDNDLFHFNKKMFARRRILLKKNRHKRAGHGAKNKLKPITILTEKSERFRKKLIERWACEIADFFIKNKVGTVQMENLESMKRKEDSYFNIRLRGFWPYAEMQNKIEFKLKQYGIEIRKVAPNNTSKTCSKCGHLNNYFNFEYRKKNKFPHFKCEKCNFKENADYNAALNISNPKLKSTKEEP

T2: Cas12f (Cas12f1, Cas14a) (uncultured archaeon, UniProt A0A482D308 SEQ:1-529)
T2 sequence: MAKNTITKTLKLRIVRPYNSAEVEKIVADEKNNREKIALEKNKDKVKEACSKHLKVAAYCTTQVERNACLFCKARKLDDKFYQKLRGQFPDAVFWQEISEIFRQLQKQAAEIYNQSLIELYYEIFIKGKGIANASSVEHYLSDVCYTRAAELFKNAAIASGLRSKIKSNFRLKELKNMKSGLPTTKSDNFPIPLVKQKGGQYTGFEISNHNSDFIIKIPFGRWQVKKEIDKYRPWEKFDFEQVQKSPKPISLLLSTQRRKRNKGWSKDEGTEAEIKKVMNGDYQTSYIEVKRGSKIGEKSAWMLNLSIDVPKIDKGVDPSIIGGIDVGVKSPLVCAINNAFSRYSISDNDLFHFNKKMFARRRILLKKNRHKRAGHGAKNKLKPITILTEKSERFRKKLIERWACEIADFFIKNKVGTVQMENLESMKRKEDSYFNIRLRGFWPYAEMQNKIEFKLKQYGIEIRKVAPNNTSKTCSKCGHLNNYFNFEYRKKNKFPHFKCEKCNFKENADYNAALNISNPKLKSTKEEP

B1: WT sgRNA (ssRNA)
RNA: GGUUCACUGAUAAAGUGGAGAACCGCUUCACCAAAAGCUGUCCCUUAGGGGAUUAGAACUUGAGUGAAGGUGGGCUGCUUGCAUCAGCCUAAUGUCGAGAAGUGCUUUCUUCGGAAAGUAACCCUCGAAACAAAUUCAUUUGAAAGAAUGAAGGAAUGCAACGGAAAUUAGGUGCGCUUGGC
B2: Cas12f I118R mutant (protein)
chain: MAKNTITKTLKLRIVRPYNSAEVEKIVADEKNNREKIALEKNKDKVKEACSKHLKVAAYCTTQVERNACLFCKARKLDDKFYQKLRGQFPDAVFWQEISEIFRQLQKQAAEIYNQSLRELYYEIFIKGKGIANASSVEHYLSDVCYTRAAELFKNAAIASGLRSKIKSNFRLKELKNMKSGLPTTKSDNFPIPLVKQKGGQYTGFEISNHNSDFIIKIPFGRWQVKKEIDKYRPWEKFDFEQVQKSPKPISLLLSTQRRKRNKGWSKDEGTEAEIKKVMNGDYQTSYIEVKRGSKIGEKSAWMLNLSIDVPKIDKGVDPSIIGGIDVGVKSPLVCAINNAFSRYSISDNDLFHFNKKMFARRRILLKKNRHKRAGHGAKNKLKPITILTEKSERFRKKLIERWACEIADFFIKNKVGTVQMENLESMKRKEDSYFNIRLRGFWPYAEMQNKIEFKLKQYGIEIRKVAPNNTSKTCSKCGHLNNYFNFEYRKKNKFPHFKCEKCNFKENADYNAALNISNPKLKSTKEEP
B3: Cas12f Y122A mutant (protein)
chain: MAKNTITKTLKLRIVRPYNSAEVEKIVADEKNNREKIALEKNKDKVKEACSKHLKVAAYCTTQVERNACLFCKARKLDDKFYQKLRGQFPDAVFWQEISEIFRQLQKQAAEIYNQSLIELYAEIFIKGKGIANASSVEHYLSDVCYTRAAELFKNAAIASGLRSKIKSNFRLKELKNMKSGLPTTKSDNFPIPLVKQKGGQYTGFEISNHNSDFIIKIPFGRWQVKKEIDKYRPWEKFDFEQVQKSPKPISLLLSTQRRKRNKGWSKDEGTEAEIKKVMNGDYQTSYIEVKRGSKIGEKSAWMLNLSIDVPKIDKGVDPSIIGGIDVGVKSPLVCAINNAFSRYSISDNDLFHFNKKMFARRRILLKKNRHKRAGHGAKNKLKPITILTEKSERFRKKLIERWACEIADFFIKNKVGTVQMENLESMKRKEDSYFNIRLRGFWPYAEMQNKIEFKLKQYGIEIRKVAPNNTSKTCSKCGHLNNYFNFEYRKKNKFPHFKCEKCNFKENADYNAALNISNPKLKSTKEEP
B4: Cas12f I126R mutant (protein)
chain: MAKNTITKTLKLRIVRPYNSAEVEKIVADEKNNREKIALEKNKDKVKEACSKHLKVAAYCTTQVERNACLFCKARKLDDKFYQKLRGQFPDAVFWQEISEIFRQLQKQAAEIYNQSLIELYYEIFRKGKGIANASSVEHYLSDVCYTRAAELFKNAAIASGLRSKIKSNFRLKELKNMKSGLPTTKSDNFPIPLVKQKGGQYTGFEISNHNSDFIIKIPFGRWQVKKEIDKYRPWEKFDFEQVQKSPKPISLLLSTQRRKRNKGWSKDEGTEAEIKKVMNGDYQTSYIEVKRGSKIGEKSAWMLNLSIDVPKIDKGVDPSIIGGIDVGVKSPLVCAINNAFSRYSISDNDLFHFNKKMFARRRILLKKNRHKRAGHGAKNKLKPITILTEKSERFRKKLIERWACEIADFFIKNKVGTVQMENLESMKRKEDSYFNIRLRGFWPYAEMQNKIEFKLKQYGIEIRKVAPNNTSKTCSKCGHLNNYFNFEYRKKNKFPHFKCEKCNFKENADYNAALNISNPKLKSTKEEP
B5: Cas12f M178R mutant (protein)
chain: MAKNTITKTLKLRIVRPYNSAEVEKIVADEKNNREKIALEKNKDKVKEACSKHLKVAAYCTTQVERNACLFCKARKLDDKFYQKLRGQFPDAVFWQEISEIFRQLQKQAAEIYNQSLIELYYEIFIKGKGIANASSVEHYLSDVCYTRAAELFKNAAIASGLRSKIKSNFRLKELKNRKSGLPTTKSDNFPIPLVKQKGGQYTGFEISNHNSDFIIKIPFGRWQVKKEIDKYRPWEKFDFEQVQKSPKPISLLLSTQRRKRNKGWSKDEGTEAEIKKVMNGDYQTSYIEVKRGSKIGEKSAWMLNLSIDVPKIDKGVDPSIIGGIDVGVKSPLVCAINNAFSRYSISDNDLFHFNKKMFARRRILLKKNRHKRAGHGAKNKLKPITILTEKSERFRKKLIERWACEIADFFIKNKVGTVQMENLESMKRKEDSYFNIRLRGFWPYAEMQNKIEFKLKQYGIEIRKVAPNNTSKTCSKCGHLNNYFNFEYRKKNKFPHFKCEKCNFKENADYNAALNISNPKLKSTKEEP
B6: Cas12f I118R/Y122A/I126R/M178R (RARR) mutant (protein)
chain: MAKNTITKTLKLRIVRPYNSAEVEKIVADEKNNREKIALEKNKDKVKEACSKHLKVAAYCTTQVERNACLFCKARKLDDKFYQKLRGQFPDAVFWQEISEIFRQLQKQAAEIYNQSLRELYAEIFRKGKGIANASSVEHYLSDVCYTRAAELFKNAAIASGLRSKIKSNFRLKELKNRKSGLPTTKSDNFPIPLVKQKGGQYTGFEISNHNSDFIIKIPFGRWQVKKEIDKYRPWEKFDFEQVQKSPKPISLLLSTQRRKRNKGWSKDEGTEAEIKKVMNGDYQTSYIEVKRGSKIGEKSAWMLNLSIDVPKIDKGVDPSIIGGIDVGVKSPLVCAINNAFSRYSISDNDLFHFNKKMFARRRILLKKNRHKRAGHGAKNKLKPITILTEKSERFRKKLIERWACEIADFFIKNKVGTVQMENLESMKRKEDSYFNIRLRGFWPYAEMQNKIEFKLKQYGIEIRKVAPNNTSKTCSKCGHLNNYFNFEYRKKNKFPHFKCEKCNFKENADYNAALNISNPKLKSTKEEP

How the values were obtained:
Cas12f RARR = target: T1, Cas12f RARR; test: size exclusion co-elution; 5 mM MgCl2, 50 mM NaCl, pH 8.0; details: tags: N-terminal His6; chain copies: 2 (stated)
Procedure: (§1) The peak fraction was analyzed by SDS-PAGE and Urea PAGE. The WT Cas12f protein and the RARR mutant were each eluted together with sgRNA at the same position.

Cas12f (Cas12f1, Cas14a) = target: T2, Cas12f (Cas12f1, Cas14a); test: as above; details: tags: N-terminal His6; chain copies: 2 (stated)
Procedure: as §1

| Binder | binding result (Cas12f RARR) | binding result (Cas12f (Cas12f1, Cas14a)) | in vitro DNA cleavage activity |
| --- | --- | --- | --- |
| B1 | binds | binds | – |
| B2 | – | – | reduced the DNA cleavage activity |
| B3 | – | – | reduced the DNA cleavage activity |
| B4 | – | – | reduced the DNA cleavage activity |
| B5 | – | – | reduced the DNA cleavage activity |
| B6 | – | – | lacked the DNA cleavage activity |

— US20250340854, “ENGINEERED Cas12f PROTEIN” (THE UNIVERSITY OF TOKYO, published 2025)
